From patent US20260167699A1 (Chugai, published 2026)
One block for each binder: values may come before it.

Target: T1, FcγRIIIa (human, UniProt P08637 17-208)
T1 construct: extracellular domain; also called 3a; FcγRIIIa extracellular domain
Test: SPR (Biacore);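 note: antibody variants captured on an SPR sensor chip, with FcγRIIIa passed over as analyte in HBS-EP+ buffer at 25 °C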

T1 sequence (P08637 other isoform, or with tags, fused parts or gaps): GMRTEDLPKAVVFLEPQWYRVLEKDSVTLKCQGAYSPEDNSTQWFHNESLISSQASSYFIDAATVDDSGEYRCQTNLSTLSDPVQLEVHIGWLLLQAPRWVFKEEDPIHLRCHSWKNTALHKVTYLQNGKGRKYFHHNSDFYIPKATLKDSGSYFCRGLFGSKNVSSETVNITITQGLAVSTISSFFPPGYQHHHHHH

B3: GpH7-A5/GpH7-B3 variant L234_20W/GpL16-k0 (antibody, human IgG1, kappa)
heavy 1: not shown
heavy 2: not shown
light: DIVMTQSPLSLPVTPGEPASISCQASESLVHSNRNTYLHWYLQKPGQSPQLLIYKVSNRFSGVPDRFSGSGSGTDFTLKISRVEAEDVGVYYCSQNTHVPPTFGQGTKVEIERTVAAPSVFIFPPSDEQLKSGTASVVCLLNNFYPREAKVQWKVDNALQSGNSQESVTEQDSKDSTYSLSSTLTLSKADYEKHKVYACEVTHQGLSSPVTKSFNRGEC
notes: copies: 1 + 1 + 2
He/Con 3a: 103 % of GpH7-A5/GpH7-B3/GpL16-k0

B4: GpH7-A5/GpH7-B3 variant L234_16H/GpL16-k0 (antibody, human IgG1, kappa)
heavy 1: not shown
heavy 2: not shown
light: B3 light
notes: copies: 1 + 1 + 2
He/Con 3a: 76.8 % of GpH7-A5/GpH7-B3/GpL16-k0

B8: GpH7-A5/GpH7-B3 variant K326_02A/GpL16-k0 (antibody, human IgG1, kappa)
heavy 1: not shown
heavy 2: not shown
light: B3 light
notes: copies: 1 + 1 + 2
He/Con 3a: 130 % of GpH7-A5/GpH7-B3/GpL16-k0

B10: GpH7-A5/GpH7-B3 variant L234_03V/GpL16-k0 (antibody, human IgG1, kappa)
heavy 1: not shown
heavy 2: not shown
light: B3 light
notes: copies: 1 + 1 + 2
He/Con 3a: 88.3 % of GpH7-A5/GpH7-B3/GpL16-k0

B12: GpH7-A5/GpH7-B3 variant K334_02A/GpL16-k0 (antibody, human IgG1, kappa)
heavy 1: not shown
heavy 2: not shown
light: B3 light
notes: copies: 1 + 1 + 2
He/Con 3a: 152 % of GpH7-A5/GpH7-B3/GpL16-k0

B13: GpH7-A5/GpH7-B3 variant I336_18N/GpL16-k0 (antibody, human IgG1, kappa)
heavy 1: not shown
heavy 2: not shown
light: B3 light
notes: copies: 1 + 1 + 2
He/Con 3a: 99.4 % of GpH7-A5/GpH7-B3/GpL16-k0

B14: GpH7-A5/GpH7-B3 variant K326_03V/GpL16-k0 (antibody, human IgG1, kappa)
heavy 1: not shown
heavy 2: not shown
light: B3 light
notes: copies: 1 + 1 + 2
He/Con 3a: 135 % of GpH7-A5/GpH7-B3/GpL16-k0

B16: GpH7-A5/GpH7-B3 variant L234_10E/GpL16-k0 (antibody, human IgG1, kappa)
heavy 1: not shown
heavy 2: not shown
light: B3 light
notes: copies: 1 + 1 + 2
He/Con 3a: 111 % of GpH7-A5/GpH7-B3/GpL16-k0

B17: GpH7-A5/GpH7-B3 variant K334_04F/GpL16-k0 (antibody, human IgG1, kappa)
heavy 1: not shown
heavy 2: not shown
light: B3 light
notes: copies: 1 + 1 + 2
He/Con 3a: 152 % of GpH7-A5/GpH7-B3/GpL16-k0

B22: GpH7-A5/GpH7-B3 variant K334_09D/GpL16-k0 (antibody, human IgG1, kappa)
heavy 1: not shown
heavy 2: not shown
light: B3 light
notes: copies: 1 + 1 + 2
He/Con 3a: 164 % of GpH7-A5/GpH7-B3/GpL16-k0

B24: GpH7-A5/GpH7-B3 variant L234_01G/GpL16-k0 (antibody, human IgG1, kappa)
heavy 1: not shown
heavy 2: not shown
light: B3 light
notes: copies: 1 + 1 + 2
He/Con 3a: 55.8 % of GpH7-A5/GpH7-B3/GpL16-k0

B25: GpH7-A5/GpH7-B3 variant K334_06M/GpL16-k0 (antibody, human IgG1, kappa)
heavy 1: not shown
heavy 2: not shown
light: B3 light
notes: copies: 1 + 1 + 2
He/Con 3a: 149 % of GpH7-A5/GpH7-B3/GpL16-k0

B26: GpH7-A5/GpH7-B3 variant I336_19Q/GpL16-k0 (antibody, human IgG1, kappa)
heavy 1: not shown
heavy 2: not shown
light: B3 light
notes: copies: 1 + 1 + 2
He/Con 3a: 88.4 % of GpH7-A5/GpH7-B3/GpL16-k0

More lines, now with the values ahead:

He/Con 3a: 94.4 % of GpH7-A5/GpH7-B3/GpL16-k0
B1: GpH7-A5/GpH7-B3 variant I336_11K/GpL16-k0 (antibody, human IgG1, kappa)
heavy 1: not shown
heavy 2: not shown
light: B3 light
notes: copies: 1 + 1 + 2

He/Con 3a: 148 % of GpH7-A5/GpH7-B3/GpL16-k0
B2: GpH7-A5/GpH7-B3 variant K326_09D/GpL16-k0 (antibody, human IgG1, kappa)
heavy 1: not shown
heavy 2: not shown
light: B3 light
notes: copies: 1 + 1 + 2

He/Con 3a: 77.1 % of GpH7-A5/GpH7-B3/GpL16-k0
B5: GpH7-A5/GpH7-B3 variant L234_19Q/GpL16-k0 (antibody, human IgG1, kappa)
heavy 1: not shown
heavy 2: not shown
light: B3 light
notes: copies: 1 + 1 + 2

He/Con 3a: 134 % of GpH7-A5/GpH7-B3/GpL16-k0
B6: GpH7-A5/GpH7-B3 variant K326_18N/GpL16-k0 (antibody, human IgG1, kappa)
heavy 1: not shown
heavy 2: not shown
light: B3 light
notes: copies: 1 + 1 + 2

He/Con 3a: 83.4 % of GpH7-A5/GpH7-B3/GpL16-k0
B7: GpH7-A5/GpH7-B3 variant I336_15Y/GpL16-k0 (antibody, human IgG1, kappa)
heavy 1: not shown
heavy 2: not shown
light: B3 light
notes: copies: 1 + 1 + 2

He/Con 3a: 156 % of GpH7-A5/GpH7-B3/GpL16-k0
B9: GpH7-A5/GpH7-B3 variant K334_07I/GpL16-k0 (antibody, human IgG1, kappa)
heavy 1: not shown
heavy 2: not shown
light: B3 light
notes: copies: 1 + 1 + 2

He/Con 3a: 68.1 % of GpH7-A5/GpH7-B3/GpL16-k0
B11: GpH7-A5/GpH7-B3 variant L234_13S/GpL16-k0 (antibody, human IgG1, kappa)
heavy 1: not shown
heavy 2: not shown
light: B3 light
notes: copies: 1 + 1 + 2

He/Con 3a: 148 % of GpH7-A5/GpH7-B3/GpL16-k0
B15: GpH7-A5/GpH7-B3 variant K334_08L/GpL16-k0 (antibody, human IgG1, kappa)
heavy 1: not shown
heavy 2: not shown
light: B3 light
notes: copies: 1 + 1 + 2

He/Con 3a: 114 % of GpH7-A5/GpH7-B3/GpL16-k0
B18: GpH7-A5/GpH7-B3 variant K326_04F/GpL16-k0 (antibody, human IgG1, kappa)
heavy 1: not shown
heavy 2: not shown
light: B3 light
notes: copies: 1 + 1 + 2

He/Con 3a: 186 % of GpH7-A5/GpH7-B3/GpL16-k0
B19: GpH7-A5/GpH7-B3 variant K334_10E/GpL16-k0 (antibody, human IgG1, kappa)
heavy 1: not shown
heavy 2: not shown
light: B3 light
notes: copies: 1 + 1 + 2

He/Con 3a: 153 % of GpH7-A5/GpH7-B3/GpL16-k0
B20: GpH7-A5/GpH7-B3 variant K326_07I/GpL16-k0 (antibody, human IgG1, kappa)
heavy 1: not shown
heavy 2: not shown
light: B3 light
notes: copies: 1 + 1 + 2

He/Con 3a: 88.2 % of GpH7-A5/GpH7-B3/GpL16-k0
B21: GpH7-A5/GpH7-B3 variant L234_18N/GpL16-k0 (antibody, human IgG1, kappa)
heavy 1: not shown
heavy 2: not shown
light: B3 light
notes: copies: 1 + 1 + 2

He/Con 3a: 114 % of GpH7-A5/GpH7-B3/GpL16-k0
B23: GpH7-A5/GpH7-B3 variant K326_01G/GpL16-k0 (antibody, human IgG1, kappa)
heavy 1: not shown
heavy 2: not shown
light: B3 light
notes: copies: 1 + 1 + 2

He/Con 3a: 125 % of GpH7-A5/GpH7-B3/GpL16-k0
B27: GpH7-A5/GpH7-B3 variant K334_01G/GpL16-k0 (antibody, human IgG1, kappa)
heavy 1: not shown
heavy 2: not shown
light: B3 light
notes: copies: 1 + 1 + 2

He/Con 3a: 124 % of GpH7-A5/GpH7-B3/GpL16-k0
B28: GpH7-A5/GpH7-B3 variant K326_15Y/GpL16-k0 (antibody, human IgG1, kappa)
heavy 1: not shown
heavy 2: not shown
light: B3 light
notes: copies: 1 + 1 + 2

He/Con 3a: 140 % of GpH7-A5/GpH7-B3/GpL16-k0
B29: GpH7-A5/GpH7-B3 variant K334_18N/GpL16-k0 (antibody, human IgG1, kappa)
heavy 1: not shown
heavy 2: not shown
light: B3 light
notes: copies: 1 + 1 + 2

He/Con 3a: 140 % of GpH7-A5/GpH7-B3/GpL16-k0
B30: GpH7-A5/GpH7-B3 variant K326_14T/GpL16-k0 (antibody, human IgG1, kappa)
heavy 1: not shown
heavy 2: not shown
light: B3 light
notes: copies: 1 + 1 + 2
